Source: US10155811B2, “APLNR modulators and uses thereof” (Regeneron Pharmaceuticals, Inc., priority 2013, dated 2018)
Values joined by “and” are separate entries in the source; they are usually repeats but may differ in a detail not shown here. Equal entries are not always repeated. “Also recorded” adds a separate entry of the source.

T1: hAPLNR (Homo sapiens, UniProt P35414)
T1 sequence (P35414 1-380): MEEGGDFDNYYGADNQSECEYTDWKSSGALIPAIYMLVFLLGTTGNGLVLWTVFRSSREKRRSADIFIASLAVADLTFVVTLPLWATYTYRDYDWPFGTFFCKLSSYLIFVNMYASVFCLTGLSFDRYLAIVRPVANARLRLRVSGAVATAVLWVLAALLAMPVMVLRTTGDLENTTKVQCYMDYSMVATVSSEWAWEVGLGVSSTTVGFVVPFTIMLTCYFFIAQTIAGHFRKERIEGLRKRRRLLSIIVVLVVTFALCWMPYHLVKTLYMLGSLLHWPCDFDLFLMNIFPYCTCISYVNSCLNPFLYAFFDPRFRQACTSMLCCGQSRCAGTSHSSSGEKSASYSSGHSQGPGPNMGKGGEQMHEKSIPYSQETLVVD


Key:
hAPLNR [1] = target: T1, hAPLNR; test: CRE assay of modified apelin peptides in HEK293/CRE-luc/hAPLNR cells; assay type: cell-based; parameters: expressed in transfected cells
Description: Briefly, an HEK293 cell line was transfected to stably express the full-length human hAPLNR (amino acids 1-380 of accession number NP_005152.1), along with a luciferase reporter [cAMP response element (CRE,4X)-luciferase]. […] After 5 hours of incubation at 37° C. in 5% CO2, luminescence was measured following the addition of One Glo reagent (Promega, #E6051) using a Victor X instrument (Perkin Elmer). The data were fit by nonlinear regression to a 4-parameter logistic equation with Prism 5 software (GraphPad).

HEK293 parental cells = test: FACS binding to HEK293 parental cells; conditions: Table 3; 10 μg/mL antibody; anti-mouse IgG Alexa 647
Description: Binding ratios for human APLNR binding to purified anti-APLNR monoclonal antibodies were determined by a fluorescence-activated cell sorting (FACS) binding assay. […] The resulting stable cell lines, HEK293/CRE-luc/hAPLNR and HEK293/CRE-luc/MfAPLNR, were maintained in DMEM containing 10% FBS, NEAA, and penicillin/streptomycin with either 100 μg/mL Hygromycin B for hAPLNR cells or 500 μg/mL G418 for MfAPLNR cells.
For the FACS analysis, HEK293 parental, HEK293/CRE-luc/hAPLNR, and, HEK293/CRE-luc/mfAPLNR cells were dissociated using Enzyme Free Dissociation reagent (#S-004, Millipore, Billerica, Mass., USA) and 10^6 cells/well were plated onto 96-well v-bottom plates in PBS containing 1% FBS. […] Cells were then filtered and analyzed on Accuri Flow Cytometer (BD Biosciences, San Jose, Calif., USA). Unstained and secondary antibody alone controls were also tested for binding to all cell lines. […] Geometric mean (Geom. mean) of fluorescence for each antibody was then normalized to geometric mean of unstained cells to obtain relative binding of antibody (binding ratios) per each cell type: HEK293 (parental), HEK293/CRE-luc/hAPLNR and HEK293/CRE-luc/MfAPLNR.

hAPLNR [2] = target: T1, hAPLNR; test: CRE-luciferase cyclic AMP assay, activation of hAPLNR (inhibition of Forskolin-induced cAMP) in HEK293/CRE-luc/hAPLNR cells; assay type: cell-based; parameters: expressed in transfected cells; conditions: without Apelin, % of maximum Apelin activation
Description: The ability of anti-APLNR antibodies to activate hAPLNR-mediated cell signaling was measured using a cyclic AMP assay. The hAPLNR is a 7-transmembrane G-protein coupled receptor (GPCR).
The resulting cell line, HEK293/CRE-luc/hAPLNR, was maintained in DMEM containing 10% FBS, NEAA, pencillin/streptomycin, and 100 μg/mL Hygromycin B.
Testing of antibodies included a no antibody control.
The results of all assays were analyzed using nonlinear regression (4-parameter logistics) within Prism 5 software (GraphPad).

hAPLNR [3] = target: T1, hAPLNR; test: retinal vascular development (RVD) model in humanized APLNR mouse pups; assay type: in vivo; parameters: from tissue; host or cells: developing retina of humanized APLNR mouse pups (75% C57BL6 / 25% Sv129), in vivo
Description: A retinal vascular development (RVD) model was used to evaluate the effects of an antagonistic anti-APLNR antibody on blood vessel outgrowth in the normal developing retina of mouse pups that were of a mixed background strain (75% C57BL6 and 25% Sv129) and homozygous for expression of human APLNR in place of mouse APLNR (humanized APLNR mice). Pups were subcutaneously injected on postnatal day 2 (P2) with either 50 mg/kg of an anti-APLNR antagonist antibody, H2aM9232N, or an irrelevant human Fc (hFc) control. Reagents were masked and labeled as Solution A and Solution B to prevent experimenter bias. At postnatal day 5, tissue samples were collected and then fixed in PBS containing 4% paraformaldehyde. Fixed tissue samples were washed with PBS three times for 15 minutes, and subsequently stained with GS Lectin I (Vector Laboratories, #FL-1101) diluted 1:200 in 1×PBS containing 1% BSA in 0.25% Triton-X 100 overnight at 25° C. to visualize retinal vasculature. The following day, stained samples were rinsed with PBS three times for 15 minutes each, flat-mounted onto slides, and coverslips were subsequently mounted using Prolong Gold (Invitrogen, #P36930). Images were taken at 20 times magnification using an epi-fluorescent microscope (Nikon Eclipse 80). The vascularized areas in the retina were measured from acquired images from this assay using Adobe Photoshop CS6 extended. Statistical differences between the results obtained from the IgG control antibody and H2aM9232N treated samples were assessed using a two tailed, unpaired Student T-test (**, p<0.001). Only after retinal vasculature area measurements and statistical analysis were completed, the sample identities were unmasked.

Molecule | efficacy in the CRE assay relative to apelin-13 (hAPLNR [1]) | Binding Ratio of Geom. Mean to Unstained Cells, HEK293 Parental (HEK293 parental cells) | % Activation at 100 nM mAb (at 10 uM Forskolin) (hAPLNR [2]; Table 6A) | % Activation at 500 nM mAb (at […] Forskolin) (hAPLNR [2]; Table 6B) | Retinal blood vessel outgrowth (mm^2), MEAN (hAPLNR [3]; group mean, 50 mg/kg subcutaneous at P2, measured at P5) [mm^2] | Retinal blood vessel outgrowth (mm^2) (hAPLNR [3]; individual eyes (OD/OS), 50 mg/kg subcutaneous at P2, measured at P5, 50 mg/kg) | mean reduction in retinal blood vessel outgrowth compared to control (hFc) (hAPLNR [3]; single subcutaneous injection 50 mg/kg, postnatal day 5)
CSCC[C@H](NC(=O)[C@@H]1CCCN1C(=O)CNC(=O)[C@H](CCCCN)NC(=O)[C@H](Cc1c[nH]cn1)NC(=O)[C@H](CO)NC(=O)[C@H](CC(C)C)NC(=O)[C@H](CCCNC(=N)N)NC(=O)[C@@H]1CCCN1C(=O)[C@H](CCCNC(=N)N)NC(=O)[C@@H](N)CCC(N)=O)C(=O)N1CCC[C@H]1C(=O)N[C@@H](Cc1ccccc1)C(=O)NCC(=O)NCC(=O)NCC(=O)NCC(=O)NCC(=O)O [Apelin-13 + 5G] | retain full efficacy | – | – | – | – | – | –
H2aM9232N: antagonistic anti-APLNR antibody, HCVR/LCVR SEQ ID NO: 98/106, mouse IgG2a Fc (antibody, V domains shown, mouse IgG2a Fc) VH: QVKLVESGGGVVQPGRSLRLSCAASGFTFSNYVIHWVRQAPGKGLEWVAVIWYDGSNKYYADSVKGRFTISRDNSKNTLYLQMNSLRAEDTAVYYCARDRVVRGVDYYYYYGLDVWGQGTSVTVSS VL: EIVMTQSPATLSVSPGERATLSCRASQSVRSNLAWYQQKPGQAPRLLIYGASSRATGIPARFSGTGSGTEFTLTISSLQSDDFAVYYCQQYNKWPRTFGQGTKVEIK | – | 6 | No Activation | did not demonstrate any measurable activation; also recorded: No Activation | 2.84 | 2.49 mm^2 and 3.04 mm^2 and 3.57 mm^2 and 3.32 mm^2 and 2.23 mm^2 and 2.36 mm^2 | approximately 30%
